The conditions of series [1]: in vivo; cited from earlier work.
The test system of series [2] is SSTR-positive CA20948 pancreas tumors. The series is described as follows: Organ distribution study in CA 20948 tumor-bearing Lewis rats. As to conditions: rat, in vivo. The procedure: As explained in more detail below, PNA peptide conjugates were synthesized by means of Boc chemistry.
Organ distribution studies of the conjugate were carried out with tumor-bearing rats. […] The tumor cells are thawed, washed with PBS and suspended carefully. The cell suspension was transplanted subcutaneously into the flank of male Lewis rats (220-250 g) (about 2×10^6 cells in 0.1 ml). […] After 1 hour, the animals were killed and dissected. Various organs/tissue samples (tumor, blood, heart, lung, liver, stomach, kidney, spleen, muscle) were removed, weighed and the activity in the gamma counter was determined. In this way, % ID/g values could be obtained. The competitive uptake could be examined by injection of 100 μg octreotide, 30 min. prior to the application of the radioactive octreotide derivative.

Each structure is given as a SMILES string.

For `C[C@@H](O)[C@@H]1NC(=O)[C@H](CCCCN)NC(=O)[C@@H](Cc2c[nH]c3ccccc23)NC(=O)[C@H](Cc2ccccc2)NC(=O)[C@@H](NC(=O)[C@H](N)Cc2ccccc2)CSSC[C@@H](C(=O)N[C@H](CO)[C@@H](C)O)NC1=O` [Octreotide], in series [1], the biological half-life result is “about 90 min”. `Cc1cn(CC(=O)N(CCNC(=O)CN(CCNC(=O)CN(CCNC(=O)CN(CCNC(=O)CN(CCNC(=O)CN(CCNC(=O)CN(CCNC(=O)CN(CCNC(=O)CN(CCNC(=O)CN(CCNC(=O)CN(CCNC(=O)CN(CCNC(=O)[C@@H](N)Cc2ccc(O)c(I)c2)C(=O)Cn2cnc3c(N)ncnc32)C(=O)Cn2cnc3c(=O)[nH]c(N)nc32)C(=O)Cn2ccc(N)nc2=O)C(=O)Cn2cnc3c(=O)[nH]c(N)nc32)C(=O)Cn2cc(C)c(=O)[nH]c2=O)C(=O)Cn2cnc3c(=O)[nH]c(N)nc32)C(=O)Cn2ccc(N)nc2=O)C(=O)Cn2cnc3c(=O)[nH]c(N)nc32)C(=O)Cn2ccc(N)nc2=O)C(=O)Cn2ccc(N)nc2=O)C(=O)Cn2cnc3c(N)ncnc32)CC(=O)NCCN(CC(=O)NCCN(CC(=O)NCCN(CC(=O)N[C@H](Cc2ccccc2)C(=O)N[C@H]2CSSC[C@@H](C(=O)N[C@H](C(=O)O)[C@@H](C)O)NC(=O)[C@H]([C@@H](C)O)NC(=O)[C@H](CCCCN)NC(=O)[C@@H](Cc3c[nH]c4ccccc34)NC(=O)[C@H](Cc3ccccc3)NC2=O)C(=O)Cn2ccc(N)nc2=O)C(=O)Cn2ccc(N)nc2=O)C(=O)Cn2ccc(N)nc2=O)c(=O)[nH]c1=O` [PNA conjugate]: in series [2], the “organ distribution compared with 3-Tyr octreotide (in words)” value was “approximately the same concentration in tumor and pancreas”; the “uptake into the tumor tissue (in words)” value is reported as “selective uptake, which could be inhibited with an excess of octreotide”.

These data come from US20010029035A1, “Oligonucleotide conjugates” (priority 2000, published 2001).
